These results are taken from paper PMC8575264.

Like-named read-outs stand apart in the source and are kept apart here.

What all share (assay): fluorescence anisotropy
Data set [1] concerns the target T1, holo-CPSF30-FL (Bos taurus, UniProt O19137 1-243).
The target in data set [2] is T2, holo-CPSF30-5F (UniProt O19137 35-169).
For data set [3], the target named is T1, holo-CPSF30-FL. This is another data set of the same source.
The next data set has as its target Zn(II)-CPSF30-F2F3 (UniProt O19137).
Another data set has as its target T3, Zn(II)-CPSF30-ZK (UniProt O19137).
T3 chain: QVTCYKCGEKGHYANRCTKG

For data set [4], the target named is T1, holo-CPSF30-FL. This is another data set of the same source.
Data set [5] concerns the target T2, holo-CPSF30-5F. The source holds these as a separate data set.
In data set [6] the target is T1, holo-CPSF30-FL. This is another data set of the same source.

CACUUUAAUCCCCCCAAUCAUGCU (ssRNA) [PolyC24]: the binding result with holo-CPSF30-FL [1] is “no binding”.
UCUCACUUUAAUAAUAAAAAUCAUGCUUAU (ssRNA) [α-syn30]: the “apparent K (half saturation)” value with holo-CPSF30-5F [2] was 178 nM; with holo-CPSF30-FL [3], 110 nM. Also, the binding result in the data set with Zn(II)-CPSF30-F2F3 is “no binding”.
In the case of AAUAAUAAU (ssRNA) [AAU9], the binding result in the data set with Zn(II)-CPSF30-F2F3 is reported as “no binding”.
Take UUUAUUUAUUU (ssRNA) [ARE11]: the binding result with Zn(II)-CPSF30-ZK and in the data set with Zn(II)-CPSF30-F2F3 was “no binding” throughout.
Turning to AAUAAUAAUAAUAAUAAUAAUAAU (ssRNA) [AAU24], in the data set with Zn(II)-CPSF30-F2F3, the binding result is on record as “no binding”.
CACUUUAAUAAUAAAAAUCAUGCU (ssRNA) [α-syn24]: the binding result with Zn(II)-CPSF30-F2F3 is on record as “no binding”. The “apparent K (half saturation)” value with holo-CPSF30-FL [4] was 110 nM.
Turning to AAUAAUAAUAAU (ssRNA) [AAU12], the binding result with Zn(II)-CPSF30-F2F3 was “no binding”.
In the case of UUUUUUUUUUUUUUUUUUUUUUUU (ssRNA) [PolyU24], the binding result with Zn(II)-CPSF30-ZK and in the data set with holo-CPSF30-5F [5] was “no binding” in each case.
For CACUUUAAUCCUCCAAAUCAUGCU (ssRNA) [ΔA1,2,4,5], in the data set with holo-CPSF30-FL [6], the “apparent K (half saturation)” value was determined as 275 nM. For the same molecule, the binding result with holo-CPSF30-5F [5] is on record as “no binding”.
